Patent publication US9872893B2, “Endolysins active against Staphylococcus bacteria, pharmaceutical compositions, and methods relating thereto” (priority 2014, dated 2018)

Experiments:
[1] = system: S. aureus cell walls (purified peptidoglycan); conditions: 50 μg/ml, one hour, 37° C.
Description: To determine an increase in free amine groups, the trinitrophenylation reaction was used, originally described by Satake et al. and modified by Mokrasch (Satake M et al. (1960) Incorporation of leucine into microsomalprotein by a cell-free system of guinea-pig brain. Biochim Biophys Acta 41:366-7; Mokrasch L (1967) Use of 2,4,6-trinitrobenzenesulfonic acid for the coestimation of amines, amino acids, and proteins in mixtures. Anal Biochem 18:64-71). […] Samples were pelleted and the supernatant was filtered through a 0.22 μM filter. The sterile filtrate was added to sodium tetraborate and trinitrobenzenesulfonic acid and incubated for 30 minutes at room temperature. Samples were read at OD420. Lysine was used as a standard.

[2] = system: Staphylococcus epidermidis, NRS-101; assay: plate lysis assay (spectrum of lytic activity); format: cell-based; set-up: key to strength of lytic zone: strong lytic zone = ++; weak lytic zone = +; no lytic zone = −; conditions: 6 μg
Method: (§1) The PlyGRCS spectrum of lytic activity was performed (Schmelcher M et al. (2012) Chimeric phage lysins act synergistically with lysostaphin to kill mastitis-causing Staphylococcus aureus in murine mammary glands. Appl Environ Microbiol 78(7):2297-305) with minor modifications. Bacterial cells were diluted in sterile PBS to an OD600=1, and 100 μl was spread on each plate. 10 μl spots (600 μg/ml) of PlyGRCS or CHAPGRCS were applied. Plates were incubated overnight at 37° C. Strength of lytic zones was defined qualitatively.

[3] = system: Staphylococcus aureus, NRS-384; assay: plate lysis assay (spectrum of lytic activity); format: cell-based; set-up: key to strength of lytic zone: strong lytic zone = ++; weak lytic zone = +; no lytic zone = −; conditions: 6 μg; S. aureus NRS-384, MRSA
Method: as §1

[4] = system: Staphylococcus aureus, NRS-71; assay: plate lysis assay (spectrum of lytic activity); format: cell-based; set-up: key to strength of lytic zone: strong lytic zone = ++; weak lytic zone = +; no lytic zone = −; conditions: 6 μg
Method: as §1

[5] = system: Staphylococcus aureus, NRS-14; assay: plate lysis assay (spectrum of lytic activity); format: cell-based; set-up: key to strength of lytic zone: strong lytic zone = ++; weak lytic zone = +; no lytic zone = −; conditions: 6 μg
Method: as §1

[6] = system: SA113 ΔtagO cell walls (staphylococcal peptidoglycan); assay: cleavage analysis by mass spectrometry; format: biochemical, Staphylococcus aureus; conditions: 50 μg/ml, 18 hours, ESI-MS of digest
Method: Briefly, SA113 ΔtagO cell walls (Atilano M L et al. (2010) Teichoic acids are temporal and spatial regulators of peptidoglycan cross-linking in Staphylococcus aureus. Proc Natl Acad Sci USA 107(44):18991-6; Weidenmaier C et al. (2004) Role of teichoic acids in Staphylococcus aureus nasal colonization, a major risk factor in nosocomial infections. Nat Med 10(3):243-5) were digested in 25 mM Tris, 200 mM NaCl, pH 7.4 at 37° C. for 18 hours with 50 μg/ml of PlyGRCS, filtered through 5000-MW cutoff Vivaspin 500 units (Sartorius North America Inc., Bohemia, N.Y.), and desalted using C18 Zip Tips (Millipore, Zug, Switzerland). Controls included peptidoglycan digested with the amidase domain of 2638A, a known N-acetylmuramoyl-L-alanine amidase, or undigested peptidoglycan. To further define the PlyGRCS cut site, double digests with PlyGRCS and a truncation construct containing only the CHAP domain of LysK (CHAP-K), a D-alany-glycyl endopeptidase were performed. The samples were eluted from the Zip Tips with 50:50:0.01 (v/v/v) CH3OH:H2O:[…] (pH˜2), and NanoESI-MS analysis was performed on a Q-TOF Ultima API mass spectrometer (Micromass, UK).

[7] = system: S. aureus NRS-14 (VISA strain); assay: bactericidal analysis (CFU counts, MBC); format: cell-based, Staphylococcus aureus; conditions: 1 hour, stationary phase
Method: Sterile-filtered PlyGRCS was 2-fold serially diluted in PBS supplemented with 1 mM CaCl2 and an equal volume of either various concentrations of enzyme or buffer only was added to 10^5 S. aureus NRS-14 in a microtiter plate. Samples were incubated at 37° C. for 1 hour, then serially diluted, plated on TSB agar, and incubated overnight at 37° C. to obtain CFU counts. The MBC (minimum bactericidal concentration) was determined as the minimum concentration of enzyme that killed ≧99.9% of bacteria.
It has been noted that the minimal inhibitory concentration (MIC) assay may not be the most appropriate assay to measure endolysin efficacy due to the speed at which the enzyme acts (Kusuma C M et al. (2005) Comparison of four methods for determining lysostaphin susceptibility of various strains of Staphylococcus aureus. Antimicrobial agents and chemotherapy 49(8):3256-63). Therefore, we employed the minimum bactericidal concentration (MBC) assay, which is the lowest concentration of enzyme that kills ≧99.9% (i.e. 3 logs) of the test inoculum (Jones R et al. (1985) Susceptibility tests: microdilution and macrodilution broth procedures. In: Balows A, Hausler J, Shadomy H (eds) Manual of Clinical Microbiology. American Society for Microbiology, Washington, D.C., pp 972-7).

[8] = circular dichroism melting experiments; format: physicochemical; conditions: 0.1 mg/ml, 20 mM sodium phosphate buffer pH 7, 20-95° C. at 1° C./min
Method: CD experiments for wild-type (WT) and active-site mutants were performed on a Chirascan CD spectrometer (Applied Photophysics) equipped with a thermoelectrically controlled cell holder. CD spectra were obtained in the far-UV range (190-260 nm) in a 1 mm path length quartz cuvette at 1 nm steps with 5 second signal averaging per data point. Spectra were collected in triplicate, followed by averaging, baseline subtraction, smoothing and conversion to mean residue ellipticity (MRE) by the Pro-Data software (Applied Photophysics). Secondary structure prediction was performed using the Provencher and Glockner method (Provencher S W & Glockner J (1981) Estimation of globular protein secondary structure from circular dichroism. Biochemistry 20(1):33-7) provided by DICHROWEB (Whitmore L & Wallace B A (2004) DICHROWEB, an online server for protein secondary structure analyses from circular dichroism spectroscopic data. Nucleic Acids Res 32:W668-73).
Melting experiments were performed by heating PlyGRCS at a 0.1 mg/ml concentration in 20 mM sodium phosphate buffer pH 7 from 20° C. to 95° C. using a 1° C./min heating rate. MRE was monitored at 218 nm in a 1 mm path length quartz cuvette at 0.5° C. steps with 5 second signal averaging per data point. The melting data was smoothed, normalized and fit with a Boltzmann sigmoidal curve. The first derivative of the melting curve was then taken to determine the temperature (Tm) at which the folded and unfolded protein species in solution were at equilibrium (Fallas J A & Hartgerink J D (2012) Computational design of self-assembling register-specific collagen heterotrimers. Nat Commun 3:1087).

[9] = system: S. aureus NRS-14 peptidoglycan; assay: dinitrosalicylic acid (DNSA) assay for reducing sugars; format: biochemical, Staphylococcus aureus; conditions: 50 μg/ml, one hour, 37° C.

B1: PlyGRCS: endolysin of bacteriophage GRCS (ORF15), amino acids 1-250, SEQ ID NO: 5, C-terminal 6× His tag (protein)
chain: MKSQQQAKEWIYKHEGTGVDFDGAYGFQCMDLAVAYVYYITDGKVRMWGNAKDAINNDFKGLATVYENTPSFKPQLGDVAVYTNSQYGHIQCVISGNLDYYTCLEQNWLGGGFDGWEKATIRTHYYDGVTHFIRPKFSASNSNVLETSKVNTFGNWKQNQYGTYYRNENATFTCGFLPIFARVGSPKLSEPNGYWFQPNGYTPYDEVCLSDGLVWIGYNWQGTRYYLPVRQWNGKTGNSYSIGLPWGVFS
modifications: C-terminal 6xHis tag; Synthetically generated polypeptide (PlyGRCS phage (S. aureus))
For B1, the “free amine release (amidase/endopeptidase activity)” value [1] was “free amines were detected”, the “lytic activity on plates (in words)” value ([2]; S. epidermidis NRS-101) was “greatest strength” and the “strength of lytic zone” value ([2]; S. epidermidis NRS-101, MRSE) was “++”. The “strength of lytic zone” value [3] was “+”, the “lytic activity on plates (in words)” value ([4]; S. aureus NRS-71) was “greatest strength” and the “strength of lytic zone” value ([4]; S. aureus NRS-71, MRSA) was “++”. For the same molecule, the “lytic activity on plates (in words)” value ([5]; S. aureus NRS-14) was “greatest strength”, the “strength of lytic zone” value ([5]; S. aureus NRS-14, VISA) was “++” and the “hydrolytic activities (cleavage specificity)” value [6] was “both N-acetylmuramoyl-L-alanine amidase and D-alanyl-glycyl endopeptidase hydrolytic activities”. The “reduction of bacterial counts” value ([7]; 6.25 μg/ml) was 2 logs, the log decrease ([7]; 12.5 μg/ml) was 2.5 log and the log killing ([7]; 25 μg/ml) was 3 log. The Tm [8] was 43.5 °C and the “glycosidase activity (reducing sugar release)” value [9] was “did not show any glycosidase activity”.
